In data set [1] the test system is human Tau.
For data set [2], the system named is rat Tau (intact protein).
Data set [3] has as its system recombinant human GFAP with C-terminal tag (DDK).

calpain-2, sequence (P17655 20-700): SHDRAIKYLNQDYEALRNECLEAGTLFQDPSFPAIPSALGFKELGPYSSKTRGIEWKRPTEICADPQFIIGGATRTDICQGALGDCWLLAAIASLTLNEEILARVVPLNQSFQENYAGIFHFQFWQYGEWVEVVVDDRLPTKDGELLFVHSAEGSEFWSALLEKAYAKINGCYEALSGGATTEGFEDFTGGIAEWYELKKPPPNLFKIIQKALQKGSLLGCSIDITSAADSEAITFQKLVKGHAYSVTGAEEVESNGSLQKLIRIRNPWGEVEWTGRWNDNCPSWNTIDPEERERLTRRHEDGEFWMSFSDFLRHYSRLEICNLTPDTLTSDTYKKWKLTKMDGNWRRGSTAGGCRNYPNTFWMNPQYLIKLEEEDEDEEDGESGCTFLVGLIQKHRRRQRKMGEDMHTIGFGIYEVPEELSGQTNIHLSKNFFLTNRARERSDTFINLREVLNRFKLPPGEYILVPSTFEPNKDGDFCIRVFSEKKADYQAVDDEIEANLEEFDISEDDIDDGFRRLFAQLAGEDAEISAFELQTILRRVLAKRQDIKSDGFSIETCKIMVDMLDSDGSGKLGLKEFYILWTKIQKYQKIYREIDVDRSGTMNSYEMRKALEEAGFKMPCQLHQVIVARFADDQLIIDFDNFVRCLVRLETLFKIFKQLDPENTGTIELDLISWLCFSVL
rat Tau (intact protein), sequence (chain, as listed by the source): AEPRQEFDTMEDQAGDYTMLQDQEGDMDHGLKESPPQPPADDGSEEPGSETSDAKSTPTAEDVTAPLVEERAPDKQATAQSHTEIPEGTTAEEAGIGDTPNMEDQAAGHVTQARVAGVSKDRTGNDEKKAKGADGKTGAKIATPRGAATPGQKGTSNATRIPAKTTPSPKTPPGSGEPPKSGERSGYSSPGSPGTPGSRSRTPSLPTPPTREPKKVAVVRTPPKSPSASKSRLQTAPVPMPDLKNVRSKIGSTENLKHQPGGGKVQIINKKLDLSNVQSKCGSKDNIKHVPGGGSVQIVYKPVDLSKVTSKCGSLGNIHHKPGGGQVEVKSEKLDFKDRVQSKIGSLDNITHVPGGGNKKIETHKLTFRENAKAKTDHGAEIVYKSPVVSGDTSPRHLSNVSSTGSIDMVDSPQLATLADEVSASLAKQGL
recombinant human GFAP with C-terminal tag (DDK), sequence (chain, as listed by the source): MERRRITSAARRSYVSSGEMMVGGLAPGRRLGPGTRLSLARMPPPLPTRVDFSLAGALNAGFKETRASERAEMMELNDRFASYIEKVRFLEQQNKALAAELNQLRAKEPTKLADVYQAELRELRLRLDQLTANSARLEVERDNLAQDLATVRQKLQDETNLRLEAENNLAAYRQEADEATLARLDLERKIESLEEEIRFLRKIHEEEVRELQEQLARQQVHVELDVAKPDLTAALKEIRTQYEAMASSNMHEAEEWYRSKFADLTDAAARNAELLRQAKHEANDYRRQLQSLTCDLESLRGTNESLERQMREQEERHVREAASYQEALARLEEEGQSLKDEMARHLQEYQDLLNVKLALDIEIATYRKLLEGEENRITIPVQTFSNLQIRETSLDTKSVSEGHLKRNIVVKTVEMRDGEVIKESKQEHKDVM
calpain-1, sequence (P07384 2-714): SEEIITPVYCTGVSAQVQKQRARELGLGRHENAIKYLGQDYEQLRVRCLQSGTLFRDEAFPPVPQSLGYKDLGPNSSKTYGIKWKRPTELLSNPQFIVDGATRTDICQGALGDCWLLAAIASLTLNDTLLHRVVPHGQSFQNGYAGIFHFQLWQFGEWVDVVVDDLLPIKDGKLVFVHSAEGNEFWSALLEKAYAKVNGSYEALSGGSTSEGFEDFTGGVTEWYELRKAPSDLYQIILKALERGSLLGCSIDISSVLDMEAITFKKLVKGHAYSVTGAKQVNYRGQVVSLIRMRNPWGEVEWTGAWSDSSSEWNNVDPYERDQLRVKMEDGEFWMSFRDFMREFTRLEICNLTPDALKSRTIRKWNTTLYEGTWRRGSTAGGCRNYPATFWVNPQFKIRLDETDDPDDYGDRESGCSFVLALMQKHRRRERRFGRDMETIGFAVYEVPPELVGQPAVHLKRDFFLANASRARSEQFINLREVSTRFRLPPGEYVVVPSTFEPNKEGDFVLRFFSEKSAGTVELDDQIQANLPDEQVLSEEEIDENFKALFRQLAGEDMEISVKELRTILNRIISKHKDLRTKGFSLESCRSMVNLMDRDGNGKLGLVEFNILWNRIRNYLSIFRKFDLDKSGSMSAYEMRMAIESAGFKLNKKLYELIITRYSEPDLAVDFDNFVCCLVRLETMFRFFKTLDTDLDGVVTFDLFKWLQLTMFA

Turning to calpain-2, the “proteolytic digestion, western blot with anti-total tau antibody” value in data set [1] is on record as “Treatment of human tau with calpain or caspase produce numerous breakdown products”. Further, the “proteolytic digestion, western blot of fragments” value in data set [2] is “Both calpain-1 and -2 digest tau into several immunoreactive fragments (42 kDa, 35 kDa and 15 kDa)”. Also, the “proteolytic cleavage; N-terminal sequencing of excised GBDP bands” value in data set [3] was “cleavage by calpain 2 at Asn59 (GALN*59AGFKETRASERAE) ... and Thr383 (TIPVQT*383FSNLQIRET) ... overall producing multiple GBDPs between 49 and 38 kDa in recombinant human GFAP”.

In the case of calpain (calpain 2 or calpain 1), in data set [1], the proteolytic cleavage sites entry is “Human TBDPs are produced from Human Tau by calpain cleavage at Ser129 ... Val229 ... Gly157 ... Lys44 ... and Arg379”. Further, the “proteolytic cleavage; N-terminal sequencing of fragments” value in data set [2] was “Calpain cleaves rat tau at Lys43 ... Ser120 ... Val220 ... and Arg370”.

For the substance caspase-3, in data set [1], the proteolytic cleavage sites entry was “Caspase cleavage sites in human Tau are Asp25 (GDRKD*25QGGYTMHQD (SEQ ID NO: 17)) ... and Asp421 (SSTGSIDMVD*421SPQLATLA (SEQ ID NO: 18))”; the “proteolytic digestion, western blot with anti-total tau antibody” value was “Treatment of human tau with calpain or caspase produce numerous breakdown products”. Moreover, in data set [2], the “proteolytic cleavage; N-terminal sequencing of fragments” value is given as “Caspase-3 cleaves rat Tau at Asp412 (SSTGSIDMVD*412SPQLATLA (SEQ ID NO: 10))” and the “proteolytic digestion, western blot of fragments” value was “caspase-3 digestion only produces limited fragment doublet of 48 kDa/45/kDa”. In addition, in data set [3], the “proteolytic cleavage (Coomassie, anti-DDK and anti-GFAP western blot)” value was “illustrates successful cleavage by both calpain and caspase”.

Turning to calpain-1, the “proteolytic digestion, western blot of fragments” value in data set [2] is “Both calpain-1 and -2 digest tau into several immunoreactive fragments (42 kDa, 35 kDa and 15 kDa)”.

For the origin of these results see patent publication US20170242041.
